The values that follow come from patent publication US12269859B2, “Synthetic immune receptors and methods of use thereof” (Angeles Therapeutics, Inc., priority 2016, dated 2025).

The chains are these.
B1: 042517-B02 (protein)
chain: MALPVTALLLPLALLLHAARPQSALTQPASASGSPGQSVTISCTGTSSDVGGYNYVSWYQQHPGKAPKLMIYDVSNRPSGVSNRFSGSKSGNTASLTISGLQAEDEADYYCSSYTSSSTLYVFGTGTQLTVLLEDLKNVFPPEVAVFEPSKAEIAHTQKATLVCLATGFYPDHVELSWWVNGKEVHSGVCTDPQPLKEQPALNDSRYCLSSRLRVSATFWQNPRNHFRCQVQFYGLSENDEWTQDRAKPVTQIVSAEAWGRADCGITSASYHQGVLSATILYEILLGKATLYAVLVSALVLMAMVKRKDSRGRAKRSGSGATNFSLLKQAGDVEENPGPTSMDWIWRILFLVGAATGAHSFEEVQLQQSGPGLVKPSQTLSLTCAISGDSMLSNSDTWNWIRQSPSRGLEWLGRTYHRSTWYDDYASSVRGRVSINVDTSKNQYSLQLNAVTPEDTGVYYCARVRLQDGNSWSDAFDVWGQGTMVTVSSTRIQNPDPAVYQLRDSKSSDKSVCLFTDFDSQTNVSQSKDSDVYITDKCVLDMRSMDFKSNSAVAWSNKSDFACANAFNNSIIPEDTFFPSSDVPCDVKLVEKSFETDTNLNFQNLSVIGFRILLLKVAGFNLLMTLRLWSSRAKRSGSGVKQTLNFDLLKLAGDVESNPGPSRGHMTEYKPTVRLATRDDVPRAVRTLAAAFADYPATRHTVDPDRHIERVTELQELFLTRVGLDIGKVWVADDGAAVAVWTTPESVEAGAVFAEIGPRMAELSGSRLAAQQQMEGLLAPHRPKEPAWFLATVGVSPDHQGKGLGSAVVLPGVEAAERAGVPAFLETSAPRNLPFYERLGFTVTADVEVPEGPRTWCMTRKPGA
B2: 041917-L04 (protein)
chain: MALPVTALLLPLALLLHAARPLEGKPIPNPLLGLDSTGSGEDLKNVFPPEVAVFEPSKAEIAHTQKATLVCLATGFYPDHVELSWWVNGKEVHSGVCTDPQPLKEQPALNDSRYCLSSRLRVSATFWQNPRNHFRCQVQFYGLSENDEWTQDRAKPVTQIVSAEAWGRADCGITSASYHQGVLSATILYEILLGKATLYAVLVSALVLMAMVKRKDSRGRAKRSGSGATNFSLLKQAGDVEENPGPTSMALPVTALLLPLALLLHAARPQVQLVQSGAEVKKPGASVKVSCKASGYTFTSYDINWVRQATGQGLEWMGWMNPNSGNTGYAQKFQGRVTMTRNTSISTAYMELSSLRSEDTAVYYCARGDSTKVEIKGGGGSGGGGSGGGGSQSVLTQPRSVSGSPGQSVTISCTGTSSDVGGYNYVSWYQQHPGEAPKLIIYDADKRPSGISNRFSSGKSGNTASLTISGLQVEDEADYYCCSYAGGSTWVFGGGTKVTVLTREQKLISEEDGSGIQNPDPAVYQLRDSKSSDKSVCLFTDFDSQTNVSQSKDSDVYITDKCVLDMRSMDFKSNSAVAWSNKSDFACANAFNNSIIPEDTFFPSSDVPCDVKLVEKSFETDTNLNFQNLSVIGFRILLLKVAGFNLLMTLRLWSSRAKRSGSGVKQTLNFDLLKLAGDVESNPGPSRGHMTEYKPTVRLATRDDVPRAVRTLAAAFADYPATRHTVDPDRHIERVTELQELFLTRVGLDIGKVWVADDGAAVAVWTTPESVEAGAVFAEIGPRMAELSGSRLAAQQQMEGLLAPHRPKEPAWFLATVGVSPDHQGKGLGSAVVLPGVEAAERAGVPAFLETSAPRNLPFYERLGFTVTADVEVPEGPRTWCMTRKPGA
B3: 041117-S01 (protein)
chain: MALPVTALLLPLALLLHAARPEVQLQQSGPGLVKPSQTLSLTCAISGDSVLSNSDTWNWIRQSPSRGLEWLGRTYHRSTWYDDYASSVRGRVSINVDTSKNQYSLQLNAVTPEDTGVYYCARDRLQDGNSWSDAFDVWGQGTMVTVSSLEDLKNVFPPEVAVFEPSKAEIAHTQKATLVCLATGFYPDHVELSWWVNGKEVHSGVCTDPQPLKEQPALNDSRYCLSSRLRVSATFWQNPRNHFRCQVQFYGLSENDEWTQDRAKPVTQIVSAEAWGRADCGITSASYHQGVLSATILYEILLGKATLYAVLVSALVLMAMVKRKDSRGRAKRSGSGATNFSLLKQAGDVEENPGPTSMDWIWRILFLVGAATGAHSFEQSALTQPASVSGSPGQSITISCTGTSSDVGGYNYVSWYQQHPGKAPKLMIYDVSNRPSGVSNRFSGSKSGNTASLTISGLQAEDEADYYCSSYTSSSTLVYVFGTGTKVTVLTRIQNPDPAVYQLRDSKSSDKSVCLFTDFDSQTNVSQSKDSDVYITDKCVLDMRSMDFKSNSAVAWSNKSDFACANAFNNSIIPEDTFFPSSDVPCDVKLVEKSFETDTNLNFQNLSVIGFRILLLKVAGFNLLMTLRLWSSRAKRSGSGVKQTLNFDLLKLAGDVESNPGPSRGHMTEYKPTVRLATRDDVPRAVRTLAAAFADYPATRHTVDPDRHIERVTELQELFLTRVGLDIGKVWVADDGAAVAVWTTPESVEAGAVFAEIGPRMAELSGSRLAAQQQMEGLLAPHRPKEPAWFLATVGVSPDHQGKGLGSAVVLPGVEAAERAGVPAFLETSAPRNLPFYERLGFTVTADVEVPEGPRTWCMTRKPGA
B4: 042517-A03 (protein)
chain: MALPVTALLLPLALLLHAARPQSALTQPASASGSPGQSVTISCTGTSSDVGGYNYVSWYQQHPGKAPKLMIYDVSNRPSGVSNRFSGSKSGNTASLTISGLQAEDEADYYCSSYTSSSTLYVFGTGTQLTVLLEIQNPDPAVYQLRDSKSSDKSVCLFTDFDSQTNVSQSKDSDVYITDKCVLDMRSMDFKSNSAVAWSNKSDFACANAFNNSIIPEDTFFPSSDVPCDVKLVEKSFETDTNLNFQNLSVIGFRILLLKVAGFNLLMTLRLWSSRAKRSGSGVKQTLNFDLLKLAGDVESNPGPTSMDWIWRILFLVGAATGAHSFEEVQLQQSGPGLVKPSQTLSLTCAISGDSMLSNSDTWNWIRQSPSRGLEWLGRTYHRSTWYDDYASSVRGRVSINVDTSKNQYSLQLNAVTPEDTGVYYCARVRLQDGNSWSDAFDVWGQGTMVTVSSTREDLKNVFPPEVAVFEPSKAEIAHTQKATLVCLATGFYPDHVELSWWVNGKEVHSGVCTDPQPLKEQPALNDSRYCLSSRLRVSATFWQNPRNHFRCQVQFYGLSENDEWTQDRAKPVTQIVSAEAWGRADCGITSASYHQGVLSATILYEILLGKATLYAVLVSALVLMAMVKRKDSRGRAKRSGSGATNFSLLKQAGDVEENPGPSRGHMTEYKPTVRLATRDDVPRAVRTLAAAFADYPATRHTVDPDRHIERVTELQELFLTRVGLDIGKVWVADDGAAVAVWTTPESVEAGAVFAEIGPRMAELSGSRLAAQQQMEGLLAPHRPKEPAWFLATVGVSPDHQGKGLGSAVVLPGVEAAERAGVPAFLETSAPRNLPFYERLGFTVTADVEVPEGPRTWCMTRKPGA
B5: 040417-V03 (protein)
chain: MALPVTALLLPLALLLHAARPEVQLVESGGGLVQPGRSLRLSCAASGFTFDDYAMHWVRQAPGKGLEWVSGISWNSGSIGYADSVKGRFTISRDNAKNSLYLQMNSLRAEDTALYYCAKDKGGGYYDFWSGSDYWGQGTLVTVSSLEIQNPDPAVYQLRDSKSSDKSVCLFTDFDSQTNVSQSKDSDVYITDKCVLDMRSMDFKSNSAVAWSNKSDFACANAFNNSIIPEDTFFPSSDVPCDVKLVEKSFETDTNLNFQNLSVIGFRILLLKVAGFNLLMTLRLWSSRAKRSGSGVKQTLNFDLLKLAGDVESNPGPTSMDWIWRILFLVGAATGAHSFESSELTQDPAVSVALGQTVRITCQGDSLRSYYASWYQQKPGQAPVLVIYGKNNRPSGIPDRFSGSSSGNTASLTITGAQAEDEADYYCNSRDSSGWVFGGGTKLTVLTREDLKNVFPPEVAVFEPSKAEIAHTQKATLVCLATGFYPDHVELSWWVNGKEVHSGVCTDPQPLKEQPALNDSRYCLSSRLRVSATFWQNPRNHFRCQVQFYGLSENDEWTQDRAKPVTQIVSAEAWGRADCGITSASYHQGVLSATILYEILLGKATLYAVLVSALVLMAMVKRKDSRGRAKRSGSGATNFSLLKQAGDVEENPGPSRGHMTEYKPTVRLATRDDVPRAVRTLAAAFADYPATRHTVDPDRHIERVTELQELFLTRVGLDIGKVWVADDGAAVAVWTTPESVEAGAVFAEIGPRMAELSGSRLAAQQQMEGLLAPHRPKEPAWFLATVGVSPDHQGKGLGSAVVLPGVEAAERAGVPAFLETSAPRNLPFYERLGFTVTADVEVPEGPRTWCMTRKPGA

The first test concerns target antigen-expressing cell line. Briefly: Jurkat NFAT-GFP assay, coculture with target cell lines expressing the respective target antigen (summary Table 10A). It is filed as cell-based, human. On the set-up: key: The signs +/−, +, 2+ etc. after the name of the cell lines indicate the relative degree of positivity on the Jurkat-NFAT-GFP assay as measured by the % GFP positive cells; +: relative degree of positivity on the Jurkat-NFAT-GFP assay as measured by the % GFP positive cells; 2+: relative degree of positivity on the Jurkat-NFAT-GFP assay as measured by the % GFP positive cells. Conditions: SIR-expressing Jurkat-NFAT-GFP cells cocultured with NALM6; relative % GFP positive cells. The method, boiled down:
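Coculture of SIR-bearing Jurkat NFAT-GFP reporters with target cells, ~1:2 E:T, ~4–18 h. FACS quantified % GFP+ cells, ranked semi-quantitatively against parental Jurkat-NFAT-GFP.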
Regarding B1, the “NFAT-GFP ASSAY Positive Cell lines: NALM6” value is listed as “(+/−)”.

The same test, now with this note: SIR-expressing Jurkat-NFAT-GFP cells cocultured with RAJI; relative % GFP positive cells.
Take B2: the “NFAT-GFP ASSAY Positive Cell lines: RAJI” value is on record as “RAJI (+/−)”. On the same count and under the same terms, to B3 belongs “RAJI (+/−)”; to B4, “RAJI (+)”. Same read-out and setting: to B5 belongs “RAJI (+/−)”; to B1, “RAJI (+), NALM6”.
